In the supplement of paper PMC10567573:

B1: SOAT1 (parent)
chain: VYYIFERLCAPLFRNIKQEPFSAR
B2: TRIM55 (parent)
chain: YLPTRGGTTMASGGRFRCPSCRHE

Variants of: B1
Assay: protein stability index of a GFP-peptide fusion (GPS, HEK-293T) (PSI 1-6); higher = more stable
Details: c terminus: a fixed tail appended
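Also: lentivirally expressed fusions sorted by FACS into six bins by GFP to DsRed ratio, PSI derived from sequencing read proportions per bin multiplied by bin number.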

Variant | protein stability index
FYYIFERLCAPLFRNIKQEPFSAR [V1F] | 2.17
KYYIFERLCAPLFRNIKQEPFSAR [V1K] | 1.55
LYYIFERLCAPLFRNIKQEPFSAR [V1L] | 2.5
EYYIFERLCAPLFRNIKQEPFSAR [V1E] | 1.3
AYYIFERLCAPLFRNIKQEPFSAR [V1A] | 1.74
GYYIFERLCAPLFRNIKQEPFSAR [V1G] | 1.7
IYYIFERLCAPLFRNIKQEPFSAR [V1I] | 1.82
HYYIFERLCAPLFRNIKQEPFSAR [V1H] | 1.41
CYYIFERLCAPLFRNIKQEPFSAR [V1C] | 1.17
DYYIFERLCAPLFRNIKQEPFSAR [V1D] | 1.44

Variants of: B2
Assay: as above
Details: c terminus: a fixed tail appended

Variant | protein stability index
YLPTRGGTTMASGGRFRCPSHRHE [C21H] | 3
YLPTRGGTTMASGGRFRCPSDRHE [C21D] | 3.62
YLPTRGGTTMASGGRFRCPSERHE [C21E] | 4.03
YLPTRGGTTMASGGRFRCPSWRHE [C21W] | 2.21
YLPTRGGTTMASGGRFRCPSMRHE [C21M] | 2.51
YLPTRGGTTMASGGRFRCPSIRHE [C21I] | 3.09
YLPTRGGTTMASGGRFRCPSYRHE [C21Y] | 2.35
YLPTRGGTTMASGGRFRCPSNRHE [C21N] | 3.96
YLPTRGGTTMASGGRFRCPSTRHE [C21T] | 3.14
YLPTRGGTTMASGGRFRCPSLRHE [C21L] | 2.86
YLPTRGGTTMASGGRFRCPSSRHE [C21S] | 3.03
YLPTRGGTTMASGGRFRCPSARHE [C21A] | 3.98
YLPTRGGTTMASGGRFICPSCRHE [R17I] | 1.69
YLPTRGGTTMASGGRFSCPSCRHE [R17S] | 2.9
YLPTRGGTTMASGGRFHCPSCRHE [R17H] | 2.56
YLPTRGGTTMASGGRFNCPSCRHE [R17N] | 2.24
YLPTRGGTTMASGGRFTCPSCRHE [R17T] | 2.96
YLPTRGGTTMASGGRFKCPSCRHE [R17K] | 1.48
YLPTRGGTTMASGGRFCCPSCRHE [R17C] | 1.6
YLPTRGGTTMASGGRFLCPSCRHE [R17L] | 2.6
YLPTRGGTTMKSGGRFRCPSCRHE [A11K] | 1.36

Variant | protein stability index
YLPTRGGTTMYSGGRFRCPSCRHE [A11Y] | 3.34
YLPTRGGTTMESGGRFRCPSCRHE [A11E] | 2
YLPTRGGTTMMSGGRFRCPSCRHE [A11M] | 1.18
YLPTRGGTTMQSGGRFRCPSCRHE [A11Q] | 1.96
YLPTRGGTTMTSGGRFRCPSCRHE [A11T] | 2.46
YLPTRGGTTMFSGGRFRCPSCRHE [A11F] | 1.98
YLPTRGGTTMISGGRFRCPSCRHE [A11I] | 1.05
YLPTRGGTTMRSGGRFRCPSCRHE [A11R] | 1.37
YLPTRGGTTMHSGGRFRCPSCRHE [A11H] | 1.83
YLPTRGGTTMNSGGRFRCPSCRHE [A11N] | 1.65
YLPTRGGTTMASGGRFRCESCRHE [P19E] | 2.01
YLPTRGGTTMASGGRFRCGSCRHE [P19G] | 2.34
YLPTRGGTTMASGGRFRCYSCRHE [P19Y] | 2
YLPTRGGTTMASGGRFRCWSCRHE [P19W] | 3.12
YLPTRGGTTMASGGRFRCDSCRHE [P19D] | 3.35
YLPTRGGTTMASGGRFRCISCRHE [P19I] | 1.38
YLPTRGGTTMASGGRFRCRSCRHE [P19R] | 2.78
YLPTRGGTTMASGGRFRCSSCRHE [P19S] | 2.49
YLPTRGGTTMASGGRFRCTSCRHE [P19T] | 2.18
YLPTRGGTTMASGGRFRCVSCRHE [P19V] | 1.78
YLPTRGGTTMASGGRFRCNSCRHE [P19N] | 2.6

Variant | protein stability index
YLPTRGGTTMASGGRFRCMSCRHE [P19M] | 1.61
YLPTRGGTTMASGGRFRCQSCRHE [P19Q] | 3.5
YLPTRGGTTMASGGRARCPSCRHE [F16A] | 3.43
YLPTRGGTTMASGGRMRCPSCRHE [F16M] | 1.74
YLPTRGGTTMASGGRVRCPSCRHE [F16V] | 2.71
YLPTRGGTTMASGGRYRCPSCRHE [F16Y] | 1.57
YLPTRGGTTMASGGRSRCPSCRHE [F16S] | 3.94
YLPTRGGTTMASGGRCRCPSCRHE [F16C] | 3.06
YLPTRGGTTMASGGRKRCPSCRHE [F16K] | 2.01
YLPTRGGTTMASGGRTRCPSCRHE [F16T] | 2.98
YLPTRGGTTMASGGRNRCPSCRHE [F16N] | 2.33
YLPTRGGTTMASGKRFRCPSCRHE [G14K] | 1.83
YLPTRGGTTMASGYRFRCPSCRHE [G14Y] | 1.69
YLPTRGGTTMASGTRFRCPSCRHE [G14T] | 2.89
YLPTRGGTTMASGARFRCPSCRHE [G14A] | 2.23
YLPTRGGTTMASGMRFRCPSCRHE [G14M] | 2.76
YLPTRGGTTMASGQRFRCPSCRHE [G14Q] | 1.26
YLPTRGGTTMASGNRFRCPSCRHE [G14N] | 2.42
YLPTRGGTTMASGLRFRCPSCRHE [G14L] | 1.29
YLPTRGGTTMASGFRFRCPSCRHE [G14F] | 2.04
YLPTRGGTTMASGCRFRCPSCRHE [G14C] | 3.76

Variant | protein stability index
YLPTRGGTTMASGGRFRCPDCRHE [S20D] | 1.98
YLPTRGGTTMASGGRFRCPECRHE [S20E] | 2.01
YLPTRGGTTMASGGRFRCPTCRHE [S20T] | 2.48
YLPTRGGTTMASGGRFRCPYCRHE [S20Y] | 1.46
YLPTRGGTTMASGGRFRCPGCRHE [S20G] | 1.92
YLPTRGGTTMASGGRFRCPHCRHE [S20H] | 2.13
YLPTRGGTTMASGGRFRCPNCRHE [S20N] | 1.93
YLPTRGGTTMASGGRFRCPMCRHE [S20M] | 1.04
YLPTRGGTTMASGGRFRCPLCRHE [S20L] | 2.09
YLPTRGGTTMASGGRFRCPPCRHE [S20P] | 2.39
YLPTRGGTTMASGGRFRCPQCRHE [S20Q] | 1.8
YLPTRGGTTMASGGRFRCPKCRHE [S20K] | 2.27
YLPTRGGTTMASGGRFRCPWCRHE [S20W] | 1.12
YLPTRGGTTMASGGRFRCPRCRHE [S20R] | 2.04
YLPTRGGTTMASGGFFRCPSCRHE [R15F] | 2.76
YLPTRGGTTMASGGQFRCPSCRHE [R15Q] | 1.58
YLPTRGGTTMASGGYFRCPSCRHE [R15Y] | 1.44
YLPTRGGTTMASGGEFRCPSCRHE [R15E] | 2.35
YLPTRGGTTMASGGTFRCPSCRHE [R15T] | 2.53
YLPTRGGTTMASGGMFRCPSCRHE [R15M] | 1.31
YLPTRGGTTMASGGAFRCPSCRHE [R15A] | 2.02
